These results are taken from publication PMC5588548 (2017).

Common to all, as to experiment: inhibition of fluorescent peptide substrate cleavage, tight binding equation
Assay [1] addresses T1, ADAMTS-5 lacking the C-terminal thrombospondin domain (Homo sapiens, UniProt Q9UNA0).
T1 chain: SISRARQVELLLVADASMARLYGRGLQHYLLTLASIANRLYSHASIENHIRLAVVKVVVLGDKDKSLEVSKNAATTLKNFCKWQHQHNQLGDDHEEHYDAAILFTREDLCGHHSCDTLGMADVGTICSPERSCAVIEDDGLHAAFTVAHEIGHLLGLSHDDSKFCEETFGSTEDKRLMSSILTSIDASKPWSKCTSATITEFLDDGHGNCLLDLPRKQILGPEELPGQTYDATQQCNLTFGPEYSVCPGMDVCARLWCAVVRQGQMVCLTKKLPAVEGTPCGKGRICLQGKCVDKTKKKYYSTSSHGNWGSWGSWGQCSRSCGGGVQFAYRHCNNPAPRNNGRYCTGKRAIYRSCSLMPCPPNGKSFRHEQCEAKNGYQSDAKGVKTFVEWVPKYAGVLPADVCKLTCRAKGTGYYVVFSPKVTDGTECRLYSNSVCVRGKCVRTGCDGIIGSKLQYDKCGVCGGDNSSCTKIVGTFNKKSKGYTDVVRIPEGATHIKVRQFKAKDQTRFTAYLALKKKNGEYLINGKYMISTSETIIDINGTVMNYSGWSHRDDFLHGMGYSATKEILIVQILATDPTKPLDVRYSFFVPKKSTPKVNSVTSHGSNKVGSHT

Another assay concerns the target MMP-3 catalytic domain (Homo sapiens, UniProt P08254).
Another assay concerns the target T2, MMP-1 catalytic domain (Homo sapiens, UniProt P03956).
T2 chain: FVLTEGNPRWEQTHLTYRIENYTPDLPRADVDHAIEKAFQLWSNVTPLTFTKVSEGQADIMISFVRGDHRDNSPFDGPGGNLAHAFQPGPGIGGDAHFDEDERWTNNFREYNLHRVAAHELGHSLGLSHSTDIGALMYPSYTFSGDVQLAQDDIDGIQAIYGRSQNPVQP

Sequence of MMP-3 catalytic domain (P08254 100-272): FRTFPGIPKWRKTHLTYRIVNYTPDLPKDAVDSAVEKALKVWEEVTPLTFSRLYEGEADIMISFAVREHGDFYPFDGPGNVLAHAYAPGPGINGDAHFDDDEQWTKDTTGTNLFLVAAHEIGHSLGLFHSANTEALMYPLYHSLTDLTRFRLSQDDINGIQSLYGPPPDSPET

B1: TIMP-3 (protein)
chain: CTCSPSHPQDAFCNSDIVIRAKVVGKKLVKEGPFGTLVYTIKQMKMYRGFTKMPHVQYIHTEASESLCGLKLEVNKYQYLLTGRVYDGKMYTGLCNFVERWDQLTLSQRKGLNYRYHLGCNCKIKSCYYLPCFVTSKNECLWTDMLSNFGYPGYQSKHYACIRQKGGYCSWYRGWAPPDKSIINATDP
modifications: suramin (0.05 µg/ml)
Consider B1, for which the inhibition constant Ki (as a rule, a dissociation constant, usually derived from enzyme kinetics or from competition with a known ligand) in assay [1] was 1600 pM; with MMP-3 catalytic domain, 760 pM; with MMP-1 catalytic domain, 650 pM.

B2: TIMP-3 (protein)
chain: CTCSPSHPQDAFCNSDIVIRAKVVGKKLVKEGPFGTLVYTIKQMKMYRGFTKMPHVQYIHTEASESLCGLKLEVNKYQYLLTGRVYDGKMYTGLCNFVERWDQLTLSQRKGLNYRYHLGCNCKIKSCYYLPCFVTSKNECLWTDMLSNFGYPGYQSKHYACIRQKGGYCSWYRGWAPPDKSIINATDP
B2: the Ki was 2030 pM in assay [1], 1140 pM with MMP-3 catalytic domain and 660 pM in the assay with MMP-1 catalytic domain.
